The record followed here is patent US20250210128A1, “COMPUTER-IMPLEMENTED DESIGN OF PEPTIDE:RECEPTOR SIGNALING COMPLEXES FOR ENHANCED CHEMOTAXIS” (Ecole Polytechnique Federale de Lausanne (EPFL), priority 2022, published 2025).

In test [1] the target is CLdes CXCR4 sensor (Cdes2 design combined with H113N) (human). Briefly: cell-based or functional assay.
Test [2] has as its target WT CXCR4 with an N-terminal 3xHA-tag (human) (UniProt P61073). Briefly: cell-based or functional assay.

WT CXCR4 with an N-terminal 3xHA-tag (human), sequence (P61073 other isoform, or with tags, fused parts or gaps): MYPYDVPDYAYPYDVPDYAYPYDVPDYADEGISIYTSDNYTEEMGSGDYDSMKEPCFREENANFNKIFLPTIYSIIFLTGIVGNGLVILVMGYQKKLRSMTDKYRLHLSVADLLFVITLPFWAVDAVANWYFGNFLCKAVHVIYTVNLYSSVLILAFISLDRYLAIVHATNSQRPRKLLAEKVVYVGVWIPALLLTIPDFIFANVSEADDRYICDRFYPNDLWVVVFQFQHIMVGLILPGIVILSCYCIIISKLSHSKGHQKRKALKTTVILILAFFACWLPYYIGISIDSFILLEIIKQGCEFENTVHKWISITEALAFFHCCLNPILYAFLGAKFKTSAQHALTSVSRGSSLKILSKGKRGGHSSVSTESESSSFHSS

On to “full-length wild-type CXCL12 chemokine (from UniProt P48061 22-93) (ligand)”, for which the figures for the migration of transduced primary human T cells (Boyden chamber, migration index over no-chemoattractant control) in test [1] and in test [2] were below 5 fold and 1.5 fold, respectively.
